Assay results published in US10323078B2, “Isolated peptides and fragments thereof from fibrinogen for use as drugs, particularly in skin inflammatory diseases” (Universite Paris Descartes, priority 2015, dated 2019).

How the values were obtained:
Pfg [1] = assay: Binding of biotinylated Pfg to immobilized fibrinogen (polystyrene plate); parameters: species or system Propionibacterium acnes; conditions: various quantities of fibrinogen immobilized; biotinylated Pfg 0.1 μg/ml, 2 h at 23° C.
Method: FIG. 5: Binding of P. acnes surface proteins to fibrinogen. (A) Various quantities of human fibrinogen (hFg) and bovine fibrinogen (bFg) were immobilized onto a 96-well polystyrene plate at 4° C. for 18 h and incubated with biotinylated Pfg at 0.1 μg/ml for 2 h at 23° C. Bovine serum albumin (BSA) was used as negative control. Bound material was detected by using the HRP-streptavidin conjugate. Peroxidase activity was measured by using the ABTS substrate at 405 nm. Proteins (10 μg per lane) were separated by 10% SDS-PAGE and detected by (B) Commassie blue staining, and transferred to nitrocellulose membrane and incubated with (C) HRP-streptavidine alone, and (D) biotinylated Pfg (0.1 μg/ml). Lanes 1: molecular weight standards. Lane 2: BSA. […]
To characterize the interaction between P. acnes and ligands, we used biotinylated molecules in quantitative and qualitative assays. […] For quantitative analysis, unlabeled protein were diluted into 50 mM carbonate-bicarbonate, pH 9.6 buffer to yield a protein concentration ranging from 0.01 to 50 μg/ml, and then immobilized to 96-well polystyrene plates at 4° C. overnight. […] After washing, bound peroxidase was detected using the chromogenic peroxidase substrate ABTS. […] Binding activity was detected by incubating the membranes with 20 ml of PBT containing biotinylated proteins (0.1 μg/ml) for 2 h at room temperature followed by three washes with PBT. […]

Pfg [2] = assay: Western ligand blot with biotinylated Pfg; assay type: binding, Propionibacterium acnes; conditions: 10 μg per lane, 10% SDS-PAGE; biotinylated Pfg 0.1 μg/ml
Method: FIG. 5: Binding of P. acnes surface proteins to fibrinogen. (A) Various quantities of human fibrinogen (hFg) and bovine fibrinogen (bFg) were immobilized onto a 96-well polystyrene plate at 4° C. for 18 h and incubated with biotinylated Pfg at 0.1 μg/ml for 2 h at 23° C. Bovine serum albumin (BSA) was used as negative control. Bound material was detected by using the HRP-streptavidin conjugate. Peroxidase activity was measured by using the ABTS substrate at 405 nm. Proteins (10 μg per lane) were separated by 10% SDS-PAGE and detected by (B) Commassie blue staining, and transferred to nitrocellulose membrane and incubated with (C) HRP-streptavidine alone, and (D) biotinylated Pfg (0.1 μg/ml). Lanes 1: molecular weight standards. Lane 2: BSA. Lane 3: hFg. Lane 4: bFg.
FIG. 8: Cloning of Bß human fibrinogen fragments and binding with Pfg. (A) Cloning and expression of recombinant human Bß fibrinogen fragments Fg1, Fg2, Fg3 and Fg4. Fibrinogen fragments were obtained by RT-PCR and expression plasmids were constructed as described in Materials and Methods. (B) GST-fused proteins were expressed in E. coli, fractionated by 12.5% SDS-PAGE, and detected by Coomassie blue staining (B), and incubated with biotinylated Pfg (0.1 μg/ml) as described in Materials and Methods (C).
To characterize the interaction between P. acnes and ligands, we used biotinylated molecules in quantitative and qualitative assays. In a first set of assays, ECM ligands (fibrinogen, collagens I, IV, VI and VIII) were used as labelled proteins with biotin. In a second set of assays, P. acnes surface proteins (total extract and purified Pfg) were biotinylated. For quantitative analysis, unlabeled protein were diluted into 50 mM carbonate-bicarbonate, pH 9.6 buffer to yield a protein concentration ranging from 0.01 to 50 μg/ml, and then immobilized to 96-well polystyrene plates at 4° C. overnight. The wells were rinsed three times with 0.2 ml of PBS containing 0.05% Tween-20 (PBS-Tween). Biotinylated proteins (0.01 to 16 μg/ml in PBS-Tween) were added to the wells and incubated at room temperature for 1 h. The wells were rinsed three times with 0.2 ml of PBS-Tween. Peroxidase conjugated to streptavidin (0.5 μg/ml in PBS-Tween) was added and incubated for 30 min at room temperature. After washing, bound peroxidase was detected using the chromogenic peroxidase substrate ABTS. For qualitative analysis, unlabelled protein (10-75 μg per lane) were separated by SDS-PAGE and then transferred to nitrocellulose membranes (0.45 μm pore size), as described previously (Towbin, 1979). Membranes were then saturated overnight at 4° C. in PBS containing 5% BSA, 0.05% Tween-20 (PBT buffer). Binding activity was detected by incubating the membranes with 20 ml of PBT containing biotinylated proteins (0.1 μg/ml) for 2 h at room temperature followed by three washes with PBT. Bound biotinylated proteins were detected by incubating the membrane with peroxidase conjugated to streptavidin (0.5 μg/ml in PBT) for 1 h at room temperature. After washing, bound peroxidase activity was detected using 3,3′-diaminobenzidine in the presence of CoCl2 and H2O2 (Harlow and Lane, 1988).
Since it was shown that Pfg is recognized by fibrinogen, this ECM ligand was used to analyze the nature of this interaction. First it was analyzed the ability of fibrinogen to be recognized by purified Pfg (FIG. 5). Human and bovine Fg (hFg, bFg) were immobilized to polysterene plate and the binding activity of biotinylated Pfg was measured. […] It has been shown that fibrinogen is a glycoprotein containing both N- and O-linked glycans (Debeire 1985; Reid Townsend 1982; L'Hôte 1996). […] In parallel, deglycosylation was assessed by visualization of a shift in the mobility after electrophoresis separation and Coomassie blue staining (FIG. 6A, lanes 3 and 5) and also by using the RCA-I plant lectin able to recognize ß-linked galactosyl residues in terminal position (FIG. 6C) (Green, 1987). […]

P. acnes 6919 strain = assay: Adhesion assay, biotinylated P. acnes binding to HaCaT keratinocytes; assay type: cell-based, Propionibacterium acnes; conditions: P. acnes 6919 pre-treated with whole fibrinogen 0.01 to 0.5 mM, 1 h at 37° C.
Method: FIG. 12: Dose-dependent inhibition of P. acnes binding to keratinocytes. Biotinylated P. acnes 6919 strain at concentrations adjusted to 0.1 of absorbance at 600 nm was pre-treated with whole human (dark gray bar) and bovine (light gray bar) fibrinogen at the concentrations ranging from 0.01 to 0.5 mM and incubated 1 h at 37° C. with the human HaCaT keratinocyte cell line. After removal of unbound bacteria, adhesion activity was detected at 410 nm. Data are means±S.D. of three separate experiments. Statistical significance is indicated by * (P<0.05), ** (P<0.01), *** (P<0.001), and **** (P<0.0001), respectively.
The bacterial suspension was adjusted at 600 nm to the desired concentration, pretreated with peptides Fg1 and Fg2 at the final concentration ranging from 0.87 to 7 μM for 1 h at 37° C. and deposited on the previously saturated cells with a solution of PBS SVF 2% for 2 h. After incubation for 1 h at 37° C., unbound bacteria are removed by 3 washes with PBS and fixed bacteria are detected by a streptavidin-peroxidase solution of 0.5 μg/ml for 30 min.
Whole P. acnes bacteria are labelled by biotinylation, pre-treated or not with the peptides and contacted with the various cell lines. After removal of the unfixed bacteria, the adhesion activity was measured spectrophotometrically by using the streptavidin-peroxidase conjugate and a chromogenic substrate. […]

B1: bovine fibrinogen: purified commercial bovine fibrinogen (Sigma) (protein)
chain 1: EDGSDPPSGDFLTEGGGVRGPRLVERQQSACKETGWPFCSDEDWNTKCPSGCRMKGLIDEVDQDFTSRINKLRDSLFNYQKNSKDSNTLTKNIVELMRGDFAKANNNDNTFKQISEDLRSRIEILRRKVIEQVQRIKVLQKNVRDQLVDMKRLEVDIDIKIRSCKGSCSRALEHKVDLEDYKNQQKQLEQVIAINLLPSRDIQYLPLIKMSTITGPVPREFKSQLQEAPLEWKALLEMQQTKMVLETFGGDGHARGDSVSQGTGLAPGSPRKPGTSSIGNVNPGSYGPGSSGTWNPGRPEPGSAGTWNPGRPEPGSAGTWNPGRPEPGSAGTWNPGRPEPGSAGTWNPGRPEPGSAGTWNTGSSGSSSFRPDSSGHGNIRPSSPDWGTFREEGSVSSGTKQEFHTGKLVTTKGDKELLIDNEKVTSGHTTTTRRSCSKVITKTVTNADGRTETTKEVVKSEDGSDCGDADFDWHHTFPSRGNLDDFFHRDKDDFFTRSSHEFDGRTGLAPEFAALGESGSSSSKTSTHSKQFVSSSTTVNRGGSAIESKHFKMEDEAESLEDLGFKGAHGTQKGHTKARPARGIHTSPLGEPSLTP
chain 2: QFPTDYDEGQDDRPKVGLGARGHRPYDKKKEEAPSLRPVPPPISGGGYRARPATATVGQKKVERKPPDADGCLHADPDLGVLCPTGCKLQDTLVRQERPIRKSIEDLRNTVDSVSRTSSSTFQYITLLKNMWKGRQNQVQDNENVVNEYSSHLEKHQLYIDETVKNNIPTKLRVLRSILENLRSKIQKLESDVSTQMEYCRTPCTVTCNIPVVSGKECEKIIRNEGETSEMYLIQPEDSSKPYRVYCDMKTEKGGWTVIQNRQDGSVDFGRKWDPYKQGFGNIATNAEGKKYCGVPGEYWLGNDRISQLTNMGPTKLLIEMEDWKGDKVTALYEGFTVQNEANKYQLSVSKYKGTAGNALIEGASQLVGENRTMTIHNSMFFSTYDRDNDGWKTTDPRKQCSKEDGGGWWYNRCHAANPNGRYYWGGAYTWDMAKHGTDDGVVWMNWQGSWYSMKKMSMKIRPYFPEQ
chain 3: YVATRDNCCILDERFGSYCPTTCGIADFLNNYQTSVDKDLRTLEGILYQVENKTSEARELVKAIQISYNPDQPSKPNNIESATKNSKSMMEEIMKYETLISTHESTIRFLQEVYNSNSQKIVNLRDKVVQLEANCQEPCQDTVKIHDVTGRDCQDVANKGAKESGLYFIRPLKAKQFLVYCEIDGSGNGWTVFQKRLDGSLDFKKNWIQYKEGFGHLSPTGTGNTEFWLGNEKIHLISTQSSIPYVLRIQLEDWNGRTSTADYASFKVTGENDKYRLTYAYFIGGDAGDAFDGYDFGDDSSDKFFTSHNGMQFSTWDSDNDKYDGNCAEQVGIGWWMNKCHAGHLNGVYYQGGTYSKTSTPNGYDNGIIWATWKSRWYSMKKTTMKIIPLNRLAIGEGQQHQLGGAKQVGVEHHVEIEYD
**Q.** For B1, which “Binding of biotinylated Pfg to immobilized fibrinogen” value (Pfg [1]) is on record?
**A.** dose-dependent

**Q.** What about the “Recognition by biotinylated Pfg after electrophoretic separation of fibrinogen” value (Pfg [2]) of the same molecule?
**A.** recognized by Pfg

**Q.** What about the “Inhibition of adhesion of P. acnes to keratinocytes” value (P. acnes 6919 strain) of the same molecule?
**A.** able to inhibit the adhesion
